Experimental data published in US20220267369A1.

Assays:
[1] = molecular target: Protein A ligand of MabSelect Sure resin (GE Healthcare, Chicago, IL); assay: separation factor on Protein A MabSelect Sure against mAb2; Strip: 100 mM acetic acid
[2] = molecular target: Protein A ligand of MabSelect Sure resin (GE Healthcare, Chicago, IL); assay: resin slurry plate partitioning on Protein A MabSelect Sure; Equil/wash: 10 mM NaPhosphate, pH 6.5
[3] = molecular target: Protein A ligand of MabSelect Sure resin (GE Healthcare, Chicago, IL); assay: separation factor on Protein A MabSelect Sure against mAb2; Equil/wash: 10 mM NaPhosphate, pH 6.5
[4] = molecular target: Protein A ligand of MabSelect Sure resin (GE Healthcare, Chicago, IL); assay: separation factor on protein A resin against mAb3, loading condition
[5] = molecular target: Protein A ligand of MabSelect Sure resin (GE Healthcare, Chicago, IL); assay: separation factor on Protein A MabSelect Sure against mAb1; High salt wash: 10 mM NaPhosphate, pH 6.5, 0.5M NaCl
[6] = molecular target: Protein A ligand of MabSelect Sure resin (GE Healthcare, Chicago, IL); assay: separation factor on Protein A MabSelect Sure against mAb2; Elute: 20 mM NaAcetate, pH 3.5
[7] = molecular target: Protein A ligand of MabSelect Sure resin (GE Healthcare, Chicago, IL); assay: separation factor on Protein A MabSelect Sure against mAb1; Elute: 20 mM NaAcetate, pH 3.5
[8] = molecular target: Protein A ligand of MabSelect Sure resin (GE Healthcare, Chicago, IL); assay: separation factor on Protein A MabSelect Sure against mAb1; Strip: 100 mM acetic acid
[9] = molecular target: Protein A ligand of MabSelect Sure resin (GE Healthcare, Chicago, IL); assay: resin slurry plate partitioning on Protein A MabSelect Sure; High salt wash: 10 mM NaPhosphate, pH 6.5, 0.5M NaCl
[10] = molecular target: Protein A ligand of MabSelect Sure resin (GE Healthcare, Chicago, IL); assay: separation factor on Protein A MabSelect Sure against mAb2; High salt wash: 10 mM NaPhosphate, pH 6.5, 0.5M NaCl
[11] = molecular target: Protein A ligand of MabSelect Sure resin (GE Healthcare, Chicago, IL); assay: separation factor on Protein A MabSelect Sure against mAb1; Equil/wash: 10 mM NaPhosphate, pH 6.5
[12] = molecular target: Protein A ligand of MabSelect Sure resin (GE Healthcare, Chicago, IL); assay: resin slurry plate partitioning on Protein A MabSelect Sure; Elute: 20 mM NaAcetate, pH 3.5
[13] = molecular target: Protein A ligand of MabSelect Sure resin (GE Healthcare, Chicago, IL); assay: resin slurry plate partitioning on Protein A MabSelect Sure; Strip: 100 mM acetic acid

- log α (log KP PLBL2 - log KP mAb2) [1]: 0
- log KP (partition coefficient, bound/free on resin) [2]: 0
- log α (log KP PLBL2 - log KP mAb2) [3]: -2
- log α (log KP PLBL2 - log KP mAb3) [4]: -2
- log α (log KP PLBL2 - log KP mAb1) [5]: -2
- log α (log KP PLBL2 - log KP mAb2) [6]: -0.3
- log α (log KP PLBL2 - log KP mAb1) [7]: 0
- log α (log KP PLBL2 - log KP mAb1) [8]: 0
- log KP (partition coefficient, bound/free on resin) [9]: 0
- log α (log KP PLBL2 - log KP mAb2) [10]: -2
- log α (log KP PLBL2 - log KP mAb1) [11]: -2
- log KP (partition coefficient, bound/free on resin) [12]: 0
- log KP (partition coefficient, bound/free on resin) [13]: 0
Substance: phospholipase B-like 2 (PLBL2) (enzyme)
